What was measured:
[1] = target: T1, hRPA (replication protein A heterotrimer RPA1+RPA2+RPA3) (human (Homo sapiens), UniProt P27694;P15927;P35244 1-616;1-270;1-121); assay: EMSA
[2] = target: T1, hRPA (replication protein A …); assay: EMSA; remark: listed apart in the source

T1 sequence (P27694 whole entry, chain 1 of 3): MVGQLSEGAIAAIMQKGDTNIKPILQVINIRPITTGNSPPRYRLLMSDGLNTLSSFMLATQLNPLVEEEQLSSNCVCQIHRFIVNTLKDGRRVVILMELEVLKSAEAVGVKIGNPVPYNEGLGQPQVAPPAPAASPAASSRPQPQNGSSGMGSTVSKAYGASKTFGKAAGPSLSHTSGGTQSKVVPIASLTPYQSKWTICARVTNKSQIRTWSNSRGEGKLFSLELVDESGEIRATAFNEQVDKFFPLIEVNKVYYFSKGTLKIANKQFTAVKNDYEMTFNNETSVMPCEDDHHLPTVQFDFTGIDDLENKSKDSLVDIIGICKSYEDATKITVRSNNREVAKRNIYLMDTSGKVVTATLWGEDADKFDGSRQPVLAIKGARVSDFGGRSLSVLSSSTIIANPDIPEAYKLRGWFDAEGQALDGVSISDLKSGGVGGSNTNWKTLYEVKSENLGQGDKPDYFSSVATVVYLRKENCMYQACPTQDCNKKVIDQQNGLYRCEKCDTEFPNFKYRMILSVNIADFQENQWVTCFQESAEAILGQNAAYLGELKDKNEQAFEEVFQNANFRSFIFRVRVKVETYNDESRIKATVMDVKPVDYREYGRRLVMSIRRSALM
T1 sequence (P15927 whole entry, chain 2 of 3): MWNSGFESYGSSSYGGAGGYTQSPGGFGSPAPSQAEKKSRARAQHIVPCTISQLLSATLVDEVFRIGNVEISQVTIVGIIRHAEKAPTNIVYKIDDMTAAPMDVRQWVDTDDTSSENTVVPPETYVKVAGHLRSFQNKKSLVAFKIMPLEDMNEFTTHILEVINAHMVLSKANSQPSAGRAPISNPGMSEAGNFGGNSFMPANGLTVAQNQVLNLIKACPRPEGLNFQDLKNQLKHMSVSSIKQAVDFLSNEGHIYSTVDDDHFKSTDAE
T1 sequence (P35244 whole entry, chain 3 of 3): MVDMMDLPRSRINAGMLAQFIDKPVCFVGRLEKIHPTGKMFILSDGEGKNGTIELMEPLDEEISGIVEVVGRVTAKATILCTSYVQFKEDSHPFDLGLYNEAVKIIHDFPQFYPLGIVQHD

Row | Binder | binding signal [1] | binding result [2]
1 | TTTTTTTTTTTTTTTTTTTTTTTTTTTTTTT (ssDNA) [poly(dT)31] | ~10 fold higher affinity than Oligo 31 | –
2 | GATCTCGGCGACGCACACGCGTCCTAACTCG (ssDNA) [Oligo 31] | – | binds
